This assay addresses S100A9 (human) (UniProt P06702). In words: cell-based or functional assay.

S100A9 (human), sequence (P06702 whole entry): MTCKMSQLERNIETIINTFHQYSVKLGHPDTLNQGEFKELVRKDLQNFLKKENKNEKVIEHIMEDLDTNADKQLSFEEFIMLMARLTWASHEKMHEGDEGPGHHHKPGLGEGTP

As for “S100A9 high-affinity chimeric (CD33-IgG1) decoy receptor (from UniProt P20138 18-259) (Fc fusion)”, the colony-forming capacity of MDS BM-MNC (fold greater than controls) was less than 6.6.

These data come from patent publication US20180292411A1.
